Measured values: publication PMC5021521, “Coordinated recruitment of Spir actin nucleators and myosin V motors to Rab11 vesicle membranes” (eLife, 2016)
Where a chain is given by its changes, count along the chain named. Names may count otherwise. Each block holds one molecule with its values, some of them ahead of it.

Legend:
[1] = tested on: AcGFP-MyoVa-GTD; experiment: FLIM-FRET at vesicle membranes in HeLa cells; type: cell-based, Mus musculus; details: AcGFP-MyoVa-GTD donor
Method: Fluorescence lifetimes were imaged with a commercial FLIM upgrade kit (PicoQuant, Berlin, Germany) attached to a confocal microscope LSM 880 (Zeiss, Jena, Germany) using a 440 nm pulsed laser diode at 20 MHz repetition rate. The fluorescence was detected using the Big.2-unit (Zeiss) fed into the TimeHarp 260 photon counting board (PicoQuant). Time series of FLIM images were recorded until bright pixels accumulated at least 1000 photon events. Before pixel wise fitting (Symphotime, 64-bit, version 2, PicoQuant), a region of interest was defined manually by setting a threshold for selecting pixels of high intensity (100–300 photon events per pixel). Fitting employed an exponential two-component model to 20 ns of the decay without binning. Lifetime images contained the color coded, intensity weighted average in each pixel.
For an improved automated selection of vesicular structures in cells, we followed a previously established semi-automated approach ([Austen et al., 2015]). Briefly, confocal imaging was done using a Leica TCS SP5 X confocal microscope equipped with a pulsed white light laser (WLL, 80 MHz repetition rate; NKT Photonics, Birkerod, Denmark), a FLIM X16 TCSPC detector (LaVision Biotec, Bielefeld, Germany) and a 63x water objective (HCX PL APO CS, NA = 1.2). A band-pass filter 514/30 (AHF Analysentechnik, Tübingen, Germany) was used to block acceptor emitted photons. Data analysis includes manual selection of the cytoplasmic regions followed by a threshold algorithm, segmenting high intensity regions based on spatial signal changes at varying levels. The custom-written MATLAB program ([Austen et al., 2015]) calculates the average FRET efficiency E according to E = 1−τDA/τD
with τD as the mean donor lifetime τDA as mean donor lifetime in presence of an acceptor fluorophore. E represents the entire ROI of a single cell. Here, fitting employed an exponential one-component fit to 10 ns of decay; the first 0.5 ns were omitted due to the instrumental response. […]

[2] = molecular target: T1, MyoVa-GTD (Homo sapiens, UniProt Q9Y4I1); experiment: Surface plasmon resonance, Rab11a captured; type: binding
T1 construct: aa 1461 - 1853 (BamHI / XhoI); His6 (6xHis) with rTEV site (N, cleaved yes); made in house; host or cells: Escherichia coli BL21(DE3) or BL21-CodonPlus-RILP
Method: The assays were carried out at 25°C in buffer (50 mM Hepes pH 7.5, 100 mM NaCl, 2 mM MgCl2, 1 mM TCEP). 200–250 resonance units (RU; 1RU ≈ 1 pg × mm^−2) of Rab11a-Q70L(GTP) or Rab11-wt(GDP) were captured through their His6-tag on the surface of a NTA sensorchip using a Biacore 2000 instrument (GE Healthcare Life Sciences). MyoVa-GTD or MyoVb-GTD (10 nM–5 µM) were then injected over the tethered Rabs for one minute at a flow rate of […]. The surface was regenerated with a 2-min 0.3 M EDTA incubation and a 1-min 0.1% SDS wash. The real-time interaction profiles were double referenced using the Scrubber 2.0 software (BioLogic Software, Campbell, Australia), both the signals from a reference surface (with a non-relevant protein captured on NTA) and from blank experiments using buffer instead of MyoV-GTD were subtracted. The MyoV-GTD concentration-dependence of the steady-state SPR signals was then analyzed to determine the dissociation equilibrium constants (Kd) of the different complexes using the numerical integration algorithm software Biaevaluation 4.1. Each experiment (10 point 2-fold dilution concentration series each) was repeated in triplicate, yielding mean Kd values and standard errors (SEM).

[3] = tested on: Spir-2:MyoVa:Rab11 tripartite complex; experiment: Analytical gel filtration; type: binding, Homo sapiens; details: Superdex 200 10/30; 50 mM Tris pH 8.0, 150 mM NaCl, 2 mM MgCl2, 2 mM TCEP
Method: Complex formations were analyzed by analytical gel-filtration using Superdex 200 10/30 Increase column (GE Healthcare Life Sciences) and UV light absorbance at 280 nm and 260 nm and Visible light absorbance at 587 nm at flow rate of 0.75 ml/min in 50 mM Tris pH 8.0, 150 mM NaCl, 2 mM MgCl2, 2 mM TCEP buffer. Fractions of 500 µl were collected and analyzed by SDS-PAGE.
A 100 µl sample of His6-Rab11a-1-173-Q70L at 6 mg/ml, or of MyoVa-GTD at 5 mg/ml or of His6-mCherry-Spir-2-linker at 6 mg/ml were centrifuged at 10,000 x g for 10 min and injected into the column to monitor reference elution profiles of the individual proteins. The proteins were mixed pairwise to the same final concentrations and incubated 30 min at 4°C in a total volume of 100 µl. The two-component complexes (His6-mCherry-Spir-2-linker:MyoVa-GTD and MyoVa-GTD:His6-Rab11a-1-173-Q70L) were confirmed by the elution peak shifts and SDS-PAGE analysis. […] The tripartite His6-mCherry-Spir-2-linker:MyoVa-GTD:His6-Rab11a-1-173-Q70L complex was analyzed at the same concentration of the individual components and confirmed by SDS-PAGE.

[4] = tested on: HeLa cells; experiment: Subcellular localization by fluorescence microscopy; type: cell-based
Method: HeLa cells were seeded on microscope cover glasses and transfected with Myc-epitope-tagged Spir-2 proteins and fluorescently-tagged MyoV and Rab11 proteins as described above. Cells were fixed with paraformaldehyde (3.7% in 1x PBS) for 20 min at 4°C and subsequently permeabilized using 0.2% Triton X-100 (in 1x PBS) for 3.5 min, room temperature. Cells were incubated with anti-c-Myc antibody (9E10, mouse monoclonal, 2 µg/ml, Santa Cruz Biotechnology; RRID: AB_627268) for 1 hr at room temperature and conjugated anti-mouse secondary antibodies (Cy5; from donkey, 3.25 µg/ml, Dianova (RRID: AB_2340820) and TRITC; from donkey, 3.125 µg/ml, Dianova (RRID: AB_2340767)) for 1 hr at room temperature avoiding exposure to light. Finally, cells were mounted on microscope slides with Mowiol and analyzed with a Leica AF6000LX fluorescence microscope, equipped with a Leica HCX PL APO 63x/1.3 GLYC objective and a Leica DFC350 FX digital camera (1392 × 1040 pixels, 6.45 × 6.45 µm pixel size). 3D stacks were recorded and processed with the Leica deconvolution software module. In case of the MyoVa autoregulation/activation experiments, we quantified the MyoVa expression levels. […] In order to clearly distinguish between vesicular and cytoplasmic MyoVa localization, we imaged either high or low expressing cells and determined the sum of pixel gray values per cell as a measure for the MyoVa expression levels. Based on that, we only used cells for the autoregulation analysis having a sum of pixel gray values less than 20 × 10^6 for the expression of GFP-MyoVa-D-FL. Images were recorded using the Leica LASX software and further processed with Adobe Photoshop and subsequently assembled with Adobe Illustrator.

T1 sequence (Q9Y4I1 1463-1855): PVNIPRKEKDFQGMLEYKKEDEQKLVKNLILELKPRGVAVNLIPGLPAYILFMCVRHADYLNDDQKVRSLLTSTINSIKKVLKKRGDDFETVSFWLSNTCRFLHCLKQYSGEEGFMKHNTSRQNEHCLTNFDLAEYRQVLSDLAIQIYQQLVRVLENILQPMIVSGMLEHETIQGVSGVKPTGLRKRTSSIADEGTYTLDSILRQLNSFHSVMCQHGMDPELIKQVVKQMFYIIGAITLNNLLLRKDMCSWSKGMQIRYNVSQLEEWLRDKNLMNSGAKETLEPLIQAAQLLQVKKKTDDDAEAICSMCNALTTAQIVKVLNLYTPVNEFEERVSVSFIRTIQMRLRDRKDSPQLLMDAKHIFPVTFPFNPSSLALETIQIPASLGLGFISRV

B1: mStrawberry-Spir-2-GTBM-SB-FYVE: mStrawberry-hs-Spir2-GTBM-SB-FYVE aa 361 - 714 (protein)
chain: GEGWAARGFGSLPCILNACSGDAKSTSCINLSVTDAGGSAQRPRPRVLLKAPTLAEMEEMNTSEEEESPCGEVTLKRDRSFSEHDLAQLRSEVASGLQSATHPPGGTEPPRPRAGSAHVWRPGSRDQGTCPASVSDPSHPLLSNRGSSGDRPEASMTPDAKHLWLEFSHPVESLALTVEEVMDVRRVLVKAEMEKFLQNKELFSSLKKGKICCCCRAKFPLFSWPPSCLFCKRAVCTSCSIKMKMPSKKFGHIPVYTLGFESPQRVSAAKTAPIQRRDIFQSLQGPQWQSVEEAFPHIYSHGCVLKDVCSECTSFVADVVRSSRKSVDVLNTTPRRSRQTQSLYIPNTRTLDFK
modifications: left off: mStrawberry, end not stated, kept
fluorescence lifetime / FRET result in words [1]: able to reduce the fluorescence lifetime

B2: Spir-2-GTBM-SB-FYVE-LALA: mStrawberry-hs-Spir2-GTBM-SB-FYVE-L408A,L409A (protein)
chain: B1 chain with L48A, L49A
modifications: left off: mStrawberry, end not stated, kept
notes: mStrawberry-hs-Spir2-GTBM-SB-FYVE-L408A,L409A
fluorescence lifetime / FRET result in words [1]: did not alter the lifetime

B3: mStrawberry-Spir-2-SB-FYVE: mStrawberry-hs-Spir2-SB-FYVE aa 438 - 714 (protein)
chain: DRSFSEHDLAQLRSEVASGLQSATHPPGGTEPPRPRAGSAHVWRPGSRDQGTCPASVSDPSHPLLSNRGSSGDRPEASMTPDAKHLWLEFSHPVESLALTVEEVMDVRRVLVKAEMEKFLQNKELFSSLKKGKICCCCRAKFPLFSWPPSCLFCKRAVCTSCSIKMKMPSKKFGHIPVYTLGFESPQRVSAAKTAPIQRRDIFQSLQGPQWQSVEEAFPHIYSHGCVLKDVCSECTSFVADVVRSSRKSVDVLNTTPRRSRQTQSLYIPNTRTLDFK
modifications: left off: mStrawberry, end not stated, kept
fluorescence lifetime / FRET result in words [1]: did not alter the lifetime

Kd ([2]; MyoVa-GTD 10 nM–5 µM over captured Rab11a-Q70L(GTP) or Rab11-wt(GDP), 50 mM Hepes pH 7.5, 100 mM NaCl, 2 mM MgCl2, 1 mM TCEP, 25°C, steady state, mean ± SEM, N = 3, read-out: dissociation equilibrium constant (Kd)): 2620 ± 490 nM
affinity in words ([2]; Rab11-GDP for MyoVa): relatively high affinity
B4: Rab11GDP: Rab11-wt(GDP) captured through its His6-tag (protein)
chain: MGTRDDEYDYLFKVVLIGDSGVGKSNLLSRFTRNEFNLESKSTIGVEFATRSIQVDGKTIKAQIWDTAGQERYRAITSAYYRGAVGALLVYDIAKHLTYENVERWLKELRDHADSNIVIMLVGNKSDLRHLRAVPTDEARAFAEKNGLSFIETSALDSTNVEAAFQTILTEIYRIVS
modifications: left off: His6, N-terminal, kept
notes: Rab11-wt(GDP) captured through its His6-tag

B5: Rab11a-Q70L: hs-Rab11a-Q70L aa 1 - 173, GTP-locked mutant (protein)
chain: MGTRDDEYDYLFKVVLIGDSGVGKSNLLSRFTRNEFNLESKSTIGVEFATRSIQVDGKTIKAQIWDTAGLERYRAITSAYYRGAVGALLVYDIAKHLTYENVERWLKELRDHADSNIVIMLVGNKSDLRHLRAVPTDEARAFAEKNGLSFIETSALDSTNVEAAFQTILTEIY
modifications: left off: His6, N-terminal, kept
notes: hs-Rab11a-Q70L aa 1 - 173, GTP-locked mutant
co-elution in gel filtration in words [3]: co-elution of all three proteins

B6: Myc-Spir-2-KIND-WH2-GTBM: Myc-hs-Spir2-KIND-WH2-GTBM aa 2 - 437 (protein, UniProt Q8WWL2 2-437, looked up, fragment)
chain: ARAGSCGGAAAGAGRPEPWELSLEEVLKAYEQPLNEEQAWAVCFQGCRGLRGSPGRRLRDTGDLLLRGDGSVGAREPEAAEPATMVVPLASSEAQTVQSLGFAIYRALDWGLDESEERELSPQLERLIDLMANNDSEDSGCGAADEGYGGPEEEEEAEGVPRSVRTFAQAMRLCAARLTDPRGAQAHYQAVCRALFVETLELRAFLARVREAKEMLQKLREDEPHLETPRAELDSLGHTDWARLWVQLMRELRRGVKLKKVQEQEFNPLPTEFQLTPFEMLMQDIRARNYKLRKVMVDGDIPPRVKKDAHELILDFIRSRPPLKQVSERRLRPLPPKQRSLHEKILEEIKQERRLRPVRGEGWAARGFGSLPCILNACSGDAKSTSCINLSVTDAGGSAQRPRPRVLLKAPTLAEMEEMNTSEEEESPCGEVTLKR
modifications: Myc tag
subcellular localization in words ([4]; co-expression of eGFP-MyoVa-FL and N-terminal Spir-2 fragment): both proteins localize to vesicle membranes
subcellular localization in words ([4]; single expression): even cytoplasmic and nuclear localization
